Experimental findings from US20170037089A1 (IMMATICS BIOTECHNOLOGIES, published 2017) are described below.

Bounds are passed on as bounds.

To fix the notation:
B1: HLLEDIAHV (SEQ ID No. 3) (peptide)
peptide: HLLEDIAHV
notes: also called NEFH-001
B2: SLLSHQVLL (SEQ ID No. 20) (peptide)
peptide: SLLSHQVLL
B3: TLWRGPVVV (SEQ ID No. 10) (peptide)
peptide: TLWRGPVVV
B4: KIFSRLIYI (SEQ ID No. 5) (peptide)
peptide: KIFSRLIYI
notes: also called TRPM8-003
B5: ALLESRVNL (SEQ ID No. 6) (peptide)
peptide: ALLESRVNL
notes: also called PDE11-001
B6: YLLKDKGEYTL (SEQ ID No. 53) (peptide)
peptide: YLLKDKGEYTL
B7: AMAPNHAVV (SEQ ID No. 13) (peptide)
peptide: AMAPNHAVV
B8: ALLTFVWKL (SEQ ID No. 4) (peptide)
peptide: ALLTFVWKL
notes: also called TRPM8-002
B9: SMLGEEIQL (SEQ ID No. 2) (peptide)
peptide: SMLGEEIQL
notes: also called GREB-001
B10: ALGDLVQSV (SEQ ID No. 52) (peptide)
peptide: ALGDLVQSV
B11: YLNDSLRHV (SEQ ID No. 21) (peptide)
peptide: YLNDSLRHV
B12: YLEEECPAT (SEQ ID No. 11) (peptide)
peptide: YLEEECPAT
B13: KMDEASAQLLA (SEQ ID No. 15) (peptide)
peptide: KMDEASAQLLA
B14: KMDEASAQLL (SEQ ID No. 14) (peptide)
peptide: KMDEASAQLL
B15: KMDEASAQL (SEQ ID No. 16) (peptide)
peptide: KMDEASAQL
B16: SLYDSIAFI (SEQ ID No. 22) (peptide)
peptide: SLYDSIAFI
B17: GMLNEAEGKAIKL (SEQ ID No. 9) (peptide)
peptide: GMLNEAEGKAIKL
B18: VTAQIGIVAV (SEQ ID No. 1) (peptide)
peptide: VTAQIGIVAV
notes: also called OR51E2-001
B19: TLLQVVGVVSV (SEQ ID No. 7) (peptide)
peptide: TLLQVVGVVSV
B20: SLFHPEDTGQV (SEQ ID No. 49) (peptide)
peptide: SLFHPEDTGQV
notes: also called KLK3-004

In the assay the target is T1, HLA-A*02 (peptide-receptive MHC class I monomer after UV-ligand exchange) (human).
T1 construct: also called HLA-A*02:01; HLA-A*0201
As to the kind of experiment: UV-ligand exchange, b2m ELISA; peptide exchange yield grade (>=10% +; >=20% ++; >=50 +++; >=75% ++++). An excerpt:
Candidate peptides for T cell based therapies according to the present invention were further tested for their MHC binding capacity (affinity). The individual peptide-MHC complexes were produced by UV-ligand exchange, where a UV-sensitive peptide is cleaved upon UV-irradiation, and exchanged with the peptide of interest as analyzed. Only peptide candidates that can effectively bind and stabilize the peptide-receptive MHC molecules prevent dissociation of the MHC complexes. To determine the yield of the exchange reaction, an ELISA was performed based on the detection of the light chain (β2m) of stabilized MHC complexes. The assay was performed as generally described in Rodenko et al. (Rodenko et al., 2006).
96 well MAXISorp plates (NUNC) were coated over night with 2 ug/ml streptavidin in PBS at room temperature, washed 4× and blocked for 1 h at 37° C. in 2% BSA containing blocking buffer. Refolded HLA-A*02:01/MLA-001 monomers served as standards, covering the range of 15-500 ng/ml. Peptide-MHC monomers of the UV-exchange reaction were diluted 100 fold in blocking buffer. Samples were incubated for 1 h at 37° C., washed four times, incubated with 2 ug/ml HRP conjugated anti-32m for 1 h at 37° C., washed again and detected with TMB solution that is stopped with […]. Absorption was measured at 450 nm. Candidate peptides that show a high exchange yield (preferably higher than 50%, most preferred higher than 75%) are generally preferred for a generation and production of antibodies or fragments thereof, and/or T cell receptors or fragments thereof, as they show sufficient avidity to the MHC molecules and prevent dissociation of the MHC complexes.
In general terms: In an ELISA, binding on a coated surface is turned into a signal by an enzyme label.
For B1, the peptide exchange yield was at least 75%.

For B2, the peptide exchange yield fell in the range of 50 to 75%.

B3 returned a peptide exchange yield of 50 to 75%.

In turn, B4 registered a peptide exchange yield of 50 to 75%.

With B5, the peptide exchange yield is at least 75%.

On to B6, for which the peptide exchange yield was in the range of 50 to 75%.

B7 came in with a peptide exchange yield of 50 to 75%.

For the molecule B8, the peptide exchange yield is at least 75%.

B9 registered a peptide exchange yield of at least 75%.

On to B10, for which the peptide exchange yield was in the range of 50 to 75%.

Consider B11, for which the peptide exchange yield lay within 20 to 50%.

As to B12, the peptide exchange yield was in the range of 20 to 50%.

As for B13, the peptide exchange yield is 50 to 75%.

In turn, B14 had a peptide exchange yield of 20 to 50%.

For B15, the peptide exchange yield fell in the range of 50 to 75%.

B16 came in with a peptide exchange yield of at least 75%.

For the molecule B17, the peptide exchange yield fell in the range of 50 to 75%.

For B18, the peptide exchange yield is at least 75%.

As to B19, the peptide exchange yield lay within 20 to 50%.

For B20, the peptide exchange yield was in the range of 50 to 75%.
